Reference: US12319742 (SHATTUCK LABS, dated 2025)

T1: biotinylated recombinant human TNFRSF25-His tagged (Acro #TN5-H52H3) (human, UniProt Q93038 25-199, biotinylated)
T1 construct: treated as the same protein; also called recombinant biotin-conjugated human TNFRSF25 protein; DR3
T1 sequence (looked up): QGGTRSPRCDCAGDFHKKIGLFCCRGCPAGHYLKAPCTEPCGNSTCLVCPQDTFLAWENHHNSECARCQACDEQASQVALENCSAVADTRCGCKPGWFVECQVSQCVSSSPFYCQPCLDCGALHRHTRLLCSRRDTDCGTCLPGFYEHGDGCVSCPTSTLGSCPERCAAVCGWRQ

T2: DcR3 (decoy receptor, recombinant) (UniProt O95407 30-300)
T2 construct: also called decoy Receptor, DcR3
T2 sequence (looked up): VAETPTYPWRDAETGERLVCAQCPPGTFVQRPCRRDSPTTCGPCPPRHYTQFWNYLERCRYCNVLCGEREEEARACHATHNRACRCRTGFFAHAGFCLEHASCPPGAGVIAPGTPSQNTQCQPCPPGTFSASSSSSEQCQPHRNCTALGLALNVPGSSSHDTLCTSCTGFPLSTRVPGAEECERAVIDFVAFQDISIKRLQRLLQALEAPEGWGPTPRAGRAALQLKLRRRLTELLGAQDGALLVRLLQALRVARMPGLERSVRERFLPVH

T3: TNFR1 (recombinant) (UniProt P19438 30-211, limits assumed)
T3 sequence (looked up): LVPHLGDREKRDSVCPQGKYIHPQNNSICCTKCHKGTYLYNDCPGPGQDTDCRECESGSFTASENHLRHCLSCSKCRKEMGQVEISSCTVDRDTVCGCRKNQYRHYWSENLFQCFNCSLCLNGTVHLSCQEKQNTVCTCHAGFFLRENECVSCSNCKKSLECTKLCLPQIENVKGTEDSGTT

T4: TNFR2 (recombinant) (UniProt P20333 23-257, limits assumed)
T4 sequence (looked up): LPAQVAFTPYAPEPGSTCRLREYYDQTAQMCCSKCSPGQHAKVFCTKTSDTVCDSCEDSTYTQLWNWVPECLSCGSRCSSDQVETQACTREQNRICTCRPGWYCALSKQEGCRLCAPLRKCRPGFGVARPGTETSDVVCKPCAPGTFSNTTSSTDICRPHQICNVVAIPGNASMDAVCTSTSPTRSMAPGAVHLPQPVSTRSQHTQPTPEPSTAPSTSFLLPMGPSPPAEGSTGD


Key:
[1] = molecular target: T5, biotinylated recombinant human FcRn-His tagged protein (Acro #FCM-H82W7) (human, UniProt P55899 24-297; P61769 21-119, biotinylated); test: BLI/Octet; biotinylated human FcRn-His on streptavidin biosensor; pH 7.4; pH 7.4
T5 construct: also called hFcRn; neonatal Fc receptor
T5 sequence (P55899 24-297 limits assumed, chain 1 of 2): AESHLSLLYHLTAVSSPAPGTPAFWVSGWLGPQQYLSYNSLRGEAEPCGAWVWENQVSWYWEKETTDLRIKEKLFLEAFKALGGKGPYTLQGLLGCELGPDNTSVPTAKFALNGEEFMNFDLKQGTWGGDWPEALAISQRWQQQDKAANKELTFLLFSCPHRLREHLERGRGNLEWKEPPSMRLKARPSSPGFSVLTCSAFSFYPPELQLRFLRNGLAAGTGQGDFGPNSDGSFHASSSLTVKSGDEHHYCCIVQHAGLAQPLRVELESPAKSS
T5 sequence (P61769 21-119 limits assumed, chain 2 of 2): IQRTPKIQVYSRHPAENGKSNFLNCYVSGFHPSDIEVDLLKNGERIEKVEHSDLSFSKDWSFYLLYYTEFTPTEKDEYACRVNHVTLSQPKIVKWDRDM
Procedure: (§1) Figure 5D: FIG. 5D. FcRn binding kinetics by anti-TNFRSF25 antibodies. BLI assay was performed using the Octet Red 96e instrument. Streptavidin biosensors were loaded with biotinylated recombinant human(h) FcRn-His tagged protein (Acro #FCM-H82W7) as the ligand. During the association phase, biosensors were incubated with anti-DR3 candidate antibodies at various concentrations for 600 seconds, followed by a 600-second dissociation phase.
(§2) To detect binding of certain whole antibodies to the neonatal Fc receptor (FcRn) at neutral and acidic pH conditions, streptavidin biosensors were loaded with biotinylated recombinant human FcRn-His tagged protein (Acro #FCM-H82W7) as the ligand. During the association phase, biosensors were incubated with anti-TNFRSF25 antibodies at various concentrations for 600 seconds, followed by a 600 second dissociation phase.

[2] = molecular target: T5, biotinylated recombinant human FcRn-His …; test: BLI/Octet; biotinylated human FcRn-His on streptavidin biosensor; pH 6.0
Procedure: as §1, §2

[3] = molecular target: FcγR1 (CD64), BLI reagent (UniProt P12314 16-288, limits assumed); test: BLI; antibody as analyte at 300 nM on FcγR1
Sequence of FcγR1 (CD64), BLI reagent (P12314 16-288 limits assumed): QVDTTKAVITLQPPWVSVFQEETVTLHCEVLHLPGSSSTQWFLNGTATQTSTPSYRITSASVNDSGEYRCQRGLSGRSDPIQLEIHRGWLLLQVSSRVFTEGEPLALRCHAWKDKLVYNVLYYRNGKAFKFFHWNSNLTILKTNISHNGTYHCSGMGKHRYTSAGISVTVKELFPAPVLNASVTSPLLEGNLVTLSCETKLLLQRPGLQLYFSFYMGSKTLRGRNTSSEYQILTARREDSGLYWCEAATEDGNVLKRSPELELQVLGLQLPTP

[4] = molecular target: T5, biotinylated recombinant human FcRn-His …; test: BLI/Octet; biotinylated human FcRn-His on streptavidin biosensor; pH 7.4
Procedure: as §1, §2

[5] = molecular target: T1, biotinylated recombinant human …; test: BLI/Octet; biotinylated TNFRSF25 on streptavidin sensor, antibody in solution; 1:1 Langmuir model
[6] = molecular target: T2, DcR3 (decoy receptor, recombinant); test: MSD plate binding; human DcR3 protein immobilized on the plate, sulfo-tag anti-human Fc
[7] = molecular target: T1, biotinylated recombinant human …; test: BLI/Octet Red 96e; biotinylated TNFRSF25-His on streptavidin biosensor; 600 s association, 600 s dissociation
Procedure: Figure 4: FIG. 4. TNFRSF25 binding affinity of anti-TNFRSF25 antibodies. BLI assay was performed using the Octet Red 96e instrument. Streptavidin biosensors were loaded with biotinylated recombinant human TNFRSF25-His tagged (Acro #TN5-H52H3) as the ligand. During the association phase, biosensors were incubated with anti-TNFRSF25 antibodies at various concentrations for 600 seconds, followed by a 600-second dissociation phase.
as §2, with “human TNFRSF25,” for “the neonatal Fc receptor (FcRn) at neutral and acidic pH conditions,”, “TNFRSF25-His” for “FcRn-His”, “tagged” for “tagged protein”, “#TN5-H52H3)” for “#FCM-H82W7)”

TNFR1 (recombinant) = molecular target: T3, TNFR1 (recombinant); test: MSD plate binding; human TNFR1 protein immobilized on the plate, sulfo-tag anti-human Fc
TNFR2 (recombinant) = molecular target: T4, TNFR2 (recombinant); test: MSD plate binding; human TNFR2 protein immobilized on the plate, sulfo-tag anti-human Fc
[8] = molecular target: T1, biotinylated recombinant human …; test: MSD competition; TNFRSF25 on plate, antibody titrated, then TL1A-rabbit Fc 0.4 µg/ml as competitor
Procedure: Figure 6: FIG. 6. […] Human TNFRSF25 was precoated on MSD assay plates followed by incubating with various concentrations of anti-TNFRSF25 antibodies.

[9] = molecular target: T1, biotinylated recombinant human …; test: BLI/Octet; biotinylated TNFRSF25 on streptavidin sensor, mAb in solution; 1:1 Langmuir model
Description: Provided herein are monoclonal and biparatopic antibodies that specifically target human TNFRSF25. The monoclonal antibodies were produced in an engineered CHOK1 cell-line by transfecting the cells with vectors genetically encoding the Heavy and Light chain antibody sequences followed by a single-step affinity-capture chromatography using FcXL resins. The final monoclonal antibody preparation was buffer exchanged into PBS, pH 7.4. Production of biparatopic antibodies followed a two-step process. In the first step of the process, the so called Knob-half (or Hole-half) antibody was produced by transfecting an engineered CHOK1 cell-line with vectors genetically encoding the Knob (or the Hole) Heavy chain and the corresponding Light chain sequences. The CHOK1-cell-harvest from the Knob-half antibody and Hole half-antibody was then purified by Protein A column-based chromatography. In the second step of the process, the two half-antibodies were reassembled into the desired biparatopic format by the use of a mild reduction step followed by quenching the reaction with buffer exchange into PBS, pH 7.4. To detect binding of the antibodies to human TNFRSF25, recombinant biotin-conjugated human TNFRSF25 protein was immobilized onto a streptavidin-coated MSD (Meso Scale Discovery) plate and allowed to bind the anti-TNFRSF25 mAbs in solution. Following a washing step, the bound antibodies were detected using a sulfo-tagged anti-human Fc antibody. The results of these MSD assays are shown in arbitrary units (au) on the y-axis of FIG. 1. To determine the binding affinity of the antibodies to recombinant human TNFRSF25 protein, recombinant biotin-conjugated human TNFRSF25 protein was immobilized onto a streptavidin-coated BLI sensor and allowed to bind the anti-TNFRSF25 mAbs in solution phase. The binding affinity (K_D) was calculated using the on-rates (Ka) and off-rates (Kd) of mAb binding to the target using a 1:1 Langmuir binding model in the ForteBio data analysis software.

Binder | koff [1] [s⁻¹] | Kd [2] [nM] | koff [2] [s⁻¹] | kon [2] [M⁻¹ s⁻¹] | binding result [3] | Kd [4] [nM] | kon [4] [M⁻¹ s⁻¹] | Kd [5] [nM] | binding result [6] | Response (RU) [7] [RU] | koff [7] [s⁻¹] | kon [7] [M⁻¹ s⁻¹] | binding result (TNFR1 (recombinant)) | binding result (TNFR2 (recombinant)) | IC50 [8] [nM] | Kd [9] [nM]
SL-062 (antibody, human IgG1, kappa, Same variable regions as SL-033 with wild-type IgG1 Fc; also called clone 062) heavy: not shown light: AIQLTQSPSSLSASVGDRVTITCRASPGISSALAWYQQKPGKAPKLLMYDESSQESGVPSRFSGSGSGTDFTLTISSLQPEDFATYYCQQFNDYPLTFGGGTKVEIKRTVAAPSVFIFPPSDEQLKSGTASVVCLLNNFYPREAKVQWKVDNALQSGNSQESVTEQDSKDSTYSLSSTLTLSKADYEKHKVYACEVTHQGLSSPVTKSFNRGEC | 0.00124 | 3.93 | 0.000715 | 182000 | binds | 6.54 | 190000 |  |  |  |  |  |  |  |  | 
033_NH24 biparatopic antibody (bispecific antibody, human IgG1, kappa, L234A L235A) heavy 1: not shown light 1: AIQLTQSPSSLSASVGDRVTITCRASPGISSALAWYQQKPGKAPKLLMYDESSQESGVPSRFSGSGSGTDFTLTISSLQPEDFATYYCQQFNDYPLTFGGGTKVEIKRTVAAPSVFIFPPSDEQLKSGTASVVCLLNNFYPREAKVQWKVDNALQSGNSQESVTEQDSKDSTYSLSSTLTLSKADYEKHKVYACEVTHQGLSSPVTKSFNRGEC heavy 2: EVQLVESGGGSVQPGGSLRLSCAASGFTFSSYGMSWIRQAPGKGLEWISYISSSGGHTYYADSVKGRFTISRDNAKNSLYLQMNSLRAEDTAVYYCARGSGSFDYWGQGTLVTVSSASTKGPSVFPLAPSSKSTSGGTAALGCLVKDYFPEPVTVSWNSGALTSGVHTFPAVLQSSGLYSLSSVVTVPSSSLGTQTYICNVNHKPSNTKVDKKVEPKSCDKTHTCPPCPAPEAAGGPSVFLFPPKPKDTLMISRTPEVTCVVVDVSHEDPEVKFNWYVDGVEVHNAKTKPREEQYNSTYRVVSVLTVLHQDWLNGKEYKCKVSNKALPAPIEKTISKAKGQPREPQVCTLPPSREEMTKNQVSLSCAVKGFYPSDIAVEWESNGQPENNYKTTPPVLDSDGSFFLVSKLTVDKSRWQQGNVFSCSVMHEALHNHYTQKSLSLSPGK light 2: not shown |  |  |  |  |  |  |  | 0.14 |  |  |  |  |  |  |  | 
SL-033 (antibody, human IgG1, kappa, L234A L235A, Anti-TNFRSF25 IgG1 with Fc-silencing L234A/L235A; also called clone 033; SL-033 (L234A/L235A)) heavy: not shown light: AIQLTQSPSSLSASVGDRVTITCRASPGISSALAWYQQKPGKAPKLLMYDESSQESGVPSRFSGSGSGTDFTLTISSLQPEDFATYYCQQFNDYPLTFGGGTKVEIKRTVAAPSVFIFPPSDEQLKSGTASVVCLLNNFYPREAKVQWKVDNALQSGNSQESVTEQDSKDSTYSLSSTLTLSKADYEKHKVYACEVTHQGLSSPVTKSFNRGEC |  |  |  |  | binds |  |  |  | no binding (tested: about 200 nM (log nM about 2.3)) | 2.19 | < 1e-07 | 243000 | no binding (tested: about 200 nM (log nM about 2.3)) | no binding (tested: about 200 nM (log nM about 2.3)) | 0.07 | < 1
